Source: patent US20200376136A1 (Regeneron, published 2020)

T1: human six-transmembrane epithelial antigen of prostate 2 (STEAP2) (human, UniProt Q8NFT2 1-490)
T1 sequence: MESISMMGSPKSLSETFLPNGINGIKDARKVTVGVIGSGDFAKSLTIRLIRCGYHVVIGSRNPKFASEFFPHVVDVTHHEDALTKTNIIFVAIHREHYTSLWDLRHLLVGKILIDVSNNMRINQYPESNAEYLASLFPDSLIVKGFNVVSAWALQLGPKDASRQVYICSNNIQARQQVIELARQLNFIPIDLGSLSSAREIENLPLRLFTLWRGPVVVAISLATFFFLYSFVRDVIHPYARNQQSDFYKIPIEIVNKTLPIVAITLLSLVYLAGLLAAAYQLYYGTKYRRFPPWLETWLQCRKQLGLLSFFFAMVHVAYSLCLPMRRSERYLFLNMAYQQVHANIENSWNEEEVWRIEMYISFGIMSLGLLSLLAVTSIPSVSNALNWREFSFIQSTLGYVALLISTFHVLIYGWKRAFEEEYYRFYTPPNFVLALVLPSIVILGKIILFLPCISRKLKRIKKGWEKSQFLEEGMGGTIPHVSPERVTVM


How the values were obtained:
[1] = molecular target: T2, STEAP2/1 chimeric construct; test: FACS titration on PC3 cells expressing the STEAP2/1 chimera
T2 construct: Expressed on engineered PC3 human prostate cancer cells; also called PC3_STEAP2/1
Experimental: (§1) Flow cytometric analysis was utilized to determine binding of STEAP2×CD3 bispecific antibodies to Jurkat, PC3_STEAP2/1 chimeric and cynomolgus T cells, followed by detection with a phycoerythrin (PE)-labeled anti-human IgG antibody. […] After incubation, the cells were washed twice with cold PBS containing 1% filtered FBS and a PE-conjugated anti-human secondary antibody was added to the cells and incubated for an additional 30 minutes. Wells containing no antibody or secondary antibody only were used as a control. After incubation, cells were washed, re-suspended in 200 μL cold PBS containing 1% filtered FBS and analyzed by flow cytometry on a BD FACS Canto II.

human CD3 [2] = molecular target: T3, human CD3 (human, UniProt P07766 23-207; P04234 22-171); test: cell-based or functional assay
human CD3 [3] = molecular target: T3, human CD3; test: cell-based or functional assay; remark: listed apart in the source
[4] = molecular target: T1, human six-transmembrane epithelial …; test: cell-based or functional assay
human CD3 [5] = molecular target: T3, human CD3; test: FACS titration on Jurkat cells (human CD3)
Experimental: as §1

human CD3 [6] = molecular target: T3, human CD3; test: FACS titration of Jurkat cells
human CD3 [7] = molecular target: T3, human CD3; test: FACS assays
[8] = molecular target: T1, human six-transmembrane epithelial …; test: FACS titration on C4-2 cells (endogenous STEAP2), 4-parameter fit
Experimental: (§2) Briefly, 1×10⁵ cells were incubated with 10 μg/ml of anti STEAP2 antibodies, or isotype control antibodies for 30 min on ice in antibody dilution buffer. Following one wash with antibody dilution buffer, cells were incubated with 10 μg/ml of PE conjugated anti-human or antimouse Fc secondary antibodies for 30 min on ice. Following one additional wash, samples were incubated with Cytofix (1% formaldehyde) for 20 minutes. After one final wash, samples were filtered through a Pall 96 well filtration block, run on a Hypercyt® cytometer and analyzed in ForeCyt™ (IntelliCyt, Albuquerque, N. Mex.). Mean fluorescence intensities (MFI) were expressed as fold change above unstained levels (background). The average fold above background at antibody concentrations of 100-300 nM were determined.

[9] = molecular target: T1, human six-transmembrane epithelial …; test: FACS on C4-2 cells (endogenous STEAP2), MFI fold above unstained, average at 100-300 nM antibody
Experimental: as §2

T3 sequence (P07766 23-207 limits assumed, chain 1 of 2): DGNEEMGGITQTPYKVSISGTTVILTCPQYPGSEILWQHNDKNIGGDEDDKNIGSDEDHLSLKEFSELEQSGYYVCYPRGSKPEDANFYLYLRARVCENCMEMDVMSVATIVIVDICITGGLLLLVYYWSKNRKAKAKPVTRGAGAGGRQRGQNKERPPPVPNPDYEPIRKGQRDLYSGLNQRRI
T3 sequence (P04234 22-171 limits assumed, chain 2 of 2): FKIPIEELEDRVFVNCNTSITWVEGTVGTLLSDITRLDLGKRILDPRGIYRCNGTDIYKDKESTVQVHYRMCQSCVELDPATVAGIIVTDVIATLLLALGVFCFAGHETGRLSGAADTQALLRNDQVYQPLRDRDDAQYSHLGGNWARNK

Binder	EC50 [1] [nM]	hPBMC Proliferation [M] (EC50, with anti-CD28) (human CD3 [2])	C4-2 cells depletion EC50 [4] [nM]	EC50 (human CD3 [5]) [nM]	EC50 [8] [nM]	Avg F.A.B (fold above background) [9] [fold above background]	also measured
BSSTEAP2/CD3-004 (bispecific antibody, IgG4, V domains shown) VH 1: QVQLVESGGGVVQPGRSLRLSCVASGFTISSYGMNWVRQAPGKGLEWVAVISYDGGNKYSVDSVKGRFTISRDNSKNTLYLQMNSLRAEDSAVYYCARGRYFDLWGRGTLVTVSS VH 2: EVQLVESGGGLVQPGRSLRLSCAASGFTFADYTMHWVRQGPGTGLEWVSDIGWSGGSLGYADSVKGRFTISRDNAKNSLYLEMNNLRPEDTALYYCVKDKSGYGKFQYGLDVWGQGTTVTVSS VL: DIQMTQSPSTLSASVGDRVTITCRASQSISSWLAWYQQKPGRAPNLLISKASSLKSGVPSRFSGSGSGTEFTLTVSSLQPDDFATYYCQQYYSYSYTFGQGTKLEIK	79.1	7.1e-13	0.00311	0.688			T cells activation EC50 [M] (CD69+ of CD2+ T cells) (human CD3 [3]): 9.4e-13 M
BSSTEAP2/CD3-005 (bispecific antibody, IgG4, V domains shown) VH 1: QVQLQQSGPGLVKPSQTLSLTCAISGDSVSSNRAAWNWIRQSPSRGLQWLGRTYYRSKWYNDYAVSLRSRITINPVTSKNQVALHMNSVTPEDTAVYYCARAGIVVVPGPETFYYYDHGLDVWGQGTTVTVSS VH 2: QVQLVESGGGLVHPGRSLRLSCAASGFKFDDYTMHWVRQAPGKGLEWVSDISWNSGSKGYADSVKGRFTISRDNAKDSLYLQMDSLRAADTAFYYCAKDKSGYGHFYYYAMDVWGQGTTVTVSS VL: DIQMTQSPSSLSASVGDRVTITCRASQSIRSYLNWYQQKPGKAPELLIHAASSLQSGVPSRFSGSGSGTDFTLTISSLQPEDFASYYCQQSYSAPPITFGQGTRLEIK	31.8	2.76e-12	0.00729	14.1			
BSSTEAP2/CD3-001 (bispecific antibody, IgG4, V domains shown) VH 1: QVQLQQSGPGLVKPSQTLSLTCAISGDSVSSNRAAWNWIRQSPSRGLQWLGRTYYRSKWYNDYAVSLRSRITINPVTSKNQVALHMNSVTPEDTAVYYCARAGIVVVPGPETFYYYDHGLDVWGQGTTVTVSS VH 2: EVQLVESGGGLVQPGRSLRLSCAASGFTFDDYSMHWVRQAPGKGLEWVSGISWNSGSKGYADSVKGRFTISRDNAKNSLYLQMNSLRAEDTALYYCAKYGSGYGKFYHYGLDVWGQGTTVTVSS VL: DIQMTQSPSSLSASVGDRVTITCRASQSIRSYLNWYQQKPGKAPELLIHAASSLQSGVPSRFSGSGSGTDFTLTISSLQPEDFASYYCQQSYSAPPITFGQGTRLEIK	3.44	1.6e-10	0.00468	7.19			T cells activation EC50 [M] (CD69+ of CD2+ T cells) (human CD3 [3]): 1.61e-12 M
BSSTEAP2/CD3-006 (bispecific antibody, V domains shown) VH 1: QVQLQQSGPGLVKPSQTLSLTCAISGDSVSSNRAAWNWIRQSPSRGLQWLGRTYYRSKWYNDYAVSLRSRITINPVTSKNQVALHMNSVTPEDTAVYYCARAGIVVVPGPETFYYYDHGLDVWGQGTTVTVSS VH 2: EVQLVESGGGLVQPGRSLRLSCVASGFTFDDYSMHWVRQAPGKGLEWVSGISWNSGSKDYADSVKGRFTISRDNAKNSLYLQMNSLRAEDTALYYCAKYGSGYGKFYHYGLDVWGQGTTVTVSS VL: DIQMTQSPSSLSASVGDRVTITCRASQSIRSYLNWYQQKPGKAPELLIHAASSLQSGVPSRFSGSGSGTDFTLTISSLQPEDFASYYCQQSYSAPPITFGQGTRLEIK	12.2	8.14e-13	0.00393	3.98			
BSSTEAP2/CD3-007 (bispecific antibody, V domains shown) VH 1: QVQLQQSGPGLVKPSQTLSLTCAISGDSVSSNRAAWNWIRQSPSRGLQWLGRTYYRSKWYNDYAVSLRSRITINPVTSKNQVALHMNSVTPEDTAVYYCARAGIVVVPGPETFYYYDHGLDVWGQGTTVTVSS VH 2: EVQLVESGGGLVQPGRSLRLSCAASGFTFADYTMHWVRQAPGKGLEWVSDISWNSGSIAYADSVKGRFTISRDNAKNSLYLQMNSLRTEDTAFYYCAKDSRGYGHYKYLGLDVWGQGTTVTVSS VL: DIQMTQSPSSLSASVGDRVTITCRASQSIRSYLNWYQQKPGKAPELLIHAASSLQSGVPSRFSGSGSGTDFTLTISSLQPEDFASYYCQQSYSAPPITFGQGTRLEIK	5.37	8.26e-11	0.00811	0.615			
BSSTEAP2/CD3-008 (bispecific antibody, IgG4, V domains shown) VH 1: QVQLQQSGPGLVKPSQALSLTCAISGDSVSSNSAAWNWIRQSPSRGLEWLGRTYYRSKWYNDYAVSVKSRITINPDTSKNHFSLHLNSMTPEDTAVYYCARARIVVVPGPEVYYYYYYDMDVWGQGTTVTVSS VH 2: QVQLVESGGGLVHPGRSLRLSCAASGFKFDDYTMHWVRQAPGKGLEWVSDISWNSGSKGYADSVKGRFTISRDNAKDSLYLQMDSLRAADTAFYYCAKDKSGYGHFYYYAMDVWGQGTTVTVSS VL: not shown	68.8	7.76e-12	0.00411	1.52			
BSSTEAP2/CD3-009 (bispecific antibody, IgG4, V domains shown) VH 1: QVQLQQSGPGLVKPSQTLSLTCVISGDSVSTNSAAWNWIRQSPSRGLEWLGRTYYRSKWYNDYAVSVRSRITINPVTSKNQVALHLNSVTPEDTAVYYCARAGIVVVPGPETYYYYYHGLDVWGQGTTVTVSS VH 2: QVQLVESGGGLVHPGRSLRLSCAASGFKFDDYTMHWVRQAPGKGLEWVSDISWNSGSKGYADSVKGRFTISRDNAKDSLYLQMDSLRAADTAFYYCAKDKSGYGHFYYYAMDVWGQGTTVTVSS VL: DIQMTQSPSSLSASVGDRVTITCRASQNIRSYLNWYQQKPGKAPKLLIHVASSLQSGVPSRFSGSGSGTDFTLTISSLQPEDFATYYCQQSYSTPPITFGHGTRLEIK	42.1	3.68e-13	0.00273	4.14			
CD3-VH-P (antibody, V domains shown, Anti-CD3 antibody from a genetically modified mouse) VH: EVQLVESGGGLVQPGRSLRLSCVASGFTFDDYSMHWVRQAPGKGLEWVSGISWNSGSKDYADSVKGRFTISRDNAKNSLYLQMNSLRAEDTALYYCAKYGSGYGKFYHYGLDVWGQGTTVTVSS VL: DIQMTQSPSSLSASVGDSVTITCRASQSINNYLNWYQQKPGKAPKLLIYTASSLLSGVPSRFSGSGSGTDFTLTISGLHPEDFATYFCQQSFSTPPITFGQGTRLDIK							EC50 (human CD3 [6]): 1 to 40 nM
CD3-VH-G (antibody, V domains shown, CD3-VH-P engineered to germline frameworks) VH: EVQLVESGGGLVQPGRSLRLSCAASGFTFDDYSMHWVRQAPGKGLEWVSGISWNSGSKGYADSVKGRFTISRDNAKNSLYLQMNSLRAEDTALYYCAKYGSGYGKFYHYGLDVWGQGTTVTVSS VL: DIQMTQSPSSLSASVGDSVTITCRASQSINNYLNWYQQKPGKAPKLLIYTASSLLSGVPSRFSGSGSGTDFTLTISGLHPEDFATYFCQQSFSTPPITFGQGTRLDIK							binding result (human CD3 [7]): binds
H1M11243N (antibody, mouse IgG1, V domains shown) VH: QVQLQQSGPGLVKPSQTLSLTCAISGDSVSSNSAAWNWIRQSPSRGLEWLGRTYYRSKWYNDYAVSVKSRITINPDTSKNQFSLHLNSVTPEDTAVYYCARAGIVVVPGPDIYYYYYYGMDVWGQGTTVTVSS VL: not shown					23	116	
H2M11162N (antibody, mouse IgG2, V domains shown) VH: QVQLQQSGPGLVKPSQTLSLTCAISGDSVSSNRAAWNWIRQSPSRGLQWLGRTYYRSKWYNDYAVSLRSRITINPVTSKNQVALHMNSVTPEDTAVYYCARAGIVVVPGPETFYYYDHGLDVWGQGTTVTVSS VL: DIQMTQSPSSLSASVGDRVTITCRASQSIRSYLNWYQQKPGKAPELLIHAASSLQSGVPSRFSGSGSGTDFTLTISSLQPEDFASYYCQQSYSAPPITFGQGTRLEIK					4.9	365	
H2M11163N (antibody, mouse IgG2, V domains shown) VH: QVQLQQSGPGLVKPSQALSLTCAISGDSVSSNSAAWNWIRQSPSRGLEWLGRTYYRSKWYNDYAVSVKSRITINPDTSKNHFSLHLNSMTPEDTAVYYCARARIVVVPGPEVYYYYYYDMDVWGQGTTVTVSS VL: not shown					13	256	
H2M11164N (antibody, mouse IgG2, V domains shown) VH: QVQLQQSGPGLVKPSQTLSLTCVISGDSVSTNSAAWNWIRQSPSRGLEWLGRTYYRSKWYNDYAVSVRSRITINPVTSKNQVALHLNSVTPEDTAVYYCARAGIVVVPGPETYYYYYHGLDVWGQGTTVTVSS VL: DIQMTQSPSSLSASVGDRVTITCRASQNIRSYLNWYQQKPGKAPKLLIHVASSLQSGVPSRFSGSGSGTDFTLTISSLQPEDFATYYCQQSYSTPPITFGHGTRLEIK					3.7	360	
